Patent US20180072786A1
Ends that are not written are not given here.

Molecular target: mixture of biotinylated D-enantiomeric Aβ1-42 oligomers and fibrils (UniProt P05067)
Test: monoclonal phage ELISA, A450; signal on immobilized oligomers/fibrils (normalized by the 6E10 control) against signal on monomers set to 100%

mixture of biotinylated D-enantiomeric Aβ1-42 oligomers and fibrils, sequence (P05067 672-713 limits assumed, form in doubt): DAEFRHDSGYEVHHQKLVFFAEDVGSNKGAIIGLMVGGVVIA

Row | Binder | Difference in signal strength between Aβ1-42 monomers (100%) and Aβ1-42 oligomers and fibrils
1 | YSFHFEMNMGNY (peptide, not shown: large carriers, not fully specified) [individual phage clone 6.113 (Mosd13)] | 57.2%
2 | DWSSRVYRDPQT (peptide, not shown: large carriers, not fully specified) [individual phage clone 6.139 (Mosd16)] | 52.4%
3 | GTMLKFSGMNLT (peptide, not shown: large carriers, not fully specified) [individual phage clone 5.57 (Mosd3)] | 60%
4 | HTWTTYDYVWRL (peptide, not shown: large carriers, not fully specified) [individual phage clone 5.80 (Mosd2)] | 67.1%
5 | HFWSWTSLSMTR (peptide, not shown: large carriers, not fully specified) [individual phage clone 6.227 (Mosd8)] | 68.6%
6 | EHWDFGQWWQQS (peptide, not shown: large carriers, not fully specified) [individual phage clone 6.197 (Mosd14)] | 56.5%
7 | STLHFYTAFLNK (peptide, not shown: large carriers, not fully specified) [individual phage clone 6.249 (Mosd6)] | 68%
8 | DLRFSSLWKLSH (peptide, not shown: large carriers, not fully specified) [individual phage clone 6.190 (Mosd19)] | 50.3%
9 | LSMNITTVHRWH (peptide, not shown: large carriers, not fully specified) [individual phage clone 6.245 (Mosd11)] | 57.7%
10 | HLSWYWEKYLTS (peptide, not shown: large carriers, not fully specified) [individual phage clone 6.239 (Mosd9)] | 68%
11 | FSWSMVMPWPTA (peptide, not shown: large carriers, not fully specified) [individual phage clone 6.135 (Mosd21)] | 46%
12 | ERSQWGHRDPQS (peptide, not shown: large carriers, not fully specified) [individual phage clone 6.240 (Mosd17)] | 54.5%
13 | DRSKGDHRITQM (peptide, not shown: large carriers, not fully specified) [individual phage clone 6.257 (Mosd18)] | 49.2%
14 | GQWDFRQWWQPC (peptide, not shown: large carriers, not fully specified) [individual phage clone 6.255 (Mosd15)] | 60%
15 | HNWSWEWWYNPN (peptide, not shown: large carriers, not fully specified) [individual phage clone 6.216 (Mosd5)] | 62.7%
16 | HTWTHWFSWNVP (peptide, not shown: large carriers, not fully specified) [individual phage clone 6.242 (Mosd10)] | 71.9%
17 | VHWDFRQWWQQS (peptide, not shown: large carriers, not fully specified) [individual phage clone 6.141 (Mosd12)] | 59%
18 | VHWDFRQWWQPS (peptide, not shown: large carriers, not fully specified) [individual phage clone 6.167 (Mosd20)] | 45.7%
19 | HNWFYWTTEPYD (peptide, not shown: large carriers, not fully specified) [individual phage clone 5.81 (Mosd4)] | 69.2%
20 | FSHSHHTWFTWN (peptide, not shown: large carriers, not fully specified) [individual phage clone 6.247 (Mosd7)] | 58%
21 | YSYLTSYHMVWR (peptide, not shown: large carriers, not fully specified) [individual phage clone 5.60, which contains the peptide sequence of Mosd1] | 72%
